# Literature values, collected in article PMC9456187, “The Ambivalence of Connexin43 Gap Peptides in Cardioprotection of the Isolated Heart against Ischemic Injury” (International Journal of Molecular Sciences, 2022).
# System: isolated subsarcolemmal mitochondria, calcium-induced mitochondrial permeability transition
# Settings: rat heart, Gap27 at substantially higher concentrations than in present study, ref [34]
# Description: The detailed mechanisms behind IPC are still debated, but multiple studies confirm that mitochondria play a crucial role in the observed infarct size limitation. IPC promotes translocation of signaling kinases to mitochondria, changes volume regulation of mitochondria, opens mitochondrial potassium channels and delays ROS-induced mitochondrial permeability transition. Connexin43 can be detected in subsarcolemmal mitochondria using immunoblotting of extracts from isolated mitochondria. The role of connexin43 in mitochondria has recently been reviewed ...
molecule,measurement,value
"Fibroblast growth factor 2: Fibroblast growth factor 2 triggers the protection of rat heart mitochondria (protein, UniProt P13109 10-154, looked up) Fibroblast growth factor 2: PALPEDGGGAFPPGHFKDPKRLYCKNGGFFLRIHPDGRVDGVREKSDPHVKLQLQAEERGVVSIKGVCANRYLAMKEDGRLLASKCVTEECFFFERLESNNYNTYRSRKYSSWYVALKRTGQYKLGSKTGPGQKAILFLPMSAKS",Effect on (FGF2-induced) protection of mitochondria against calcium-induced permeability transition (in words),triggers the protection of rat heart mitochondria
